# IntAct's records for PubMed 16630557
# B1: mRNA-decapping enzyme subunit 1 (Saccharomyces cerevisiae), Q12517 (parent)
# chain: MTGAATAAENSATQLEFYRKALNFNVIGRYDPKIKQLLFHTPHASLYKWDFKKDEWNKLEYQGVLAIYLRDVSQNTNLLPVSPQEVDIFDSQNGSNNIQVNNGSDNSNRNSSGNGNSYKSNDSLTYNCGKTLSGKDIYNYGLIILNRINPDNFSMGIVPNSVVNKRKVFNAEEDTLNPLECMGVEVKDELVIIKNLKHEVYGIWIHTVSDRQNIYELIKYLLENEPKDSFA
# Variants of: B1
# Conditions: with erf3_yeast SUP35, P05453
# erf3_yeast SUP35, P05453, sequence (P05453 whole entry): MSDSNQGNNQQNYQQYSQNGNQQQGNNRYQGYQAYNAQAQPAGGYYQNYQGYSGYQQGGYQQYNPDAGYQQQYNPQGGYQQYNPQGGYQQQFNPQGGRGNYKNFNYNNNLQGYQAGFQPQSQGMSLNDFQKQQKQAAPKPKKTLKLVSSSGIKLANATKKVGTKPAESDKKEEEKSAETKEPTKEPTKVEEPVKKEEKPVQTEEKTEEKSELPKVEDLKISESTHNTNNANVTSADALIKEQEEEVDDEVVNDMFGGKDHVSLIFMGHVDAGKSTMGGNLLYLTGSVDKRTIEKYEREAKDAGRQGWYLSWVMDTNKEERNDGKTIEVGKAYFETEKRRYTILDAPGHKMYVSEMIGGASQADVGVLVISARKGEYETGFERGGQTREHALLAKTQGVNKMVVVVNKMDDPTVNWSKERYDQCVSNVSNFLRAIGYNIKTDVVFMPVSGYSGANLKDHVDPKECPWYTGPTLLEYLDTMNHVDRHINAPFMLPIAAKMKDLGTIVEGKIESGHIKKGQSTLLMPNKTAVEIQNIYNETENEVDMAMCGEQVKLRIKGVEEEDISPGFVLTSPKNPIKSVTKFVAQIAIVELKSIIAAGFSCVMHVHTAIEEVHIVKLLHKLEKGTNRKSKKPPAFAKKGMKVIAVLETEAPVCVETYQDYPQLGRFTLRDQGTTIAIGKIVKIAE
row,effect of a mutation on the interaction,Variant
1,decreasing interaction,MTGAATAAENSATQLEFYRKALNFNVIGRYDPKIKQLPFHTPHAPLYKWDFKKDEWNKLEYQGVLAIYLRDVSQNTNLLPVSPQEVDIFDSQNGSNNIQVNNGSDNSNRNSSGNGNSYKSNDSLTYNCGKTLSGKDIYNYGLIILNRINPDNFSMGIVPNSVVNKRKVFNAEEDTLNPLECMGVEVKDELVIIKNLKHEVYGIWIHTVSDRQNIYELIKYLLENEPKDSFA [L38P;S45P]
2,decreasing interaction,MTGAATAAENSATQLEFYRKALNFNVIGRYDPKIKQLLFHTPHAPLYKWDFKKDEWNKLEYQGVLAIYLRDVSQNTNLLPVSPQEVDIFDSQNGSNNIQVNNGSDNSNRNSSGNGNSYKSNDSLTYNCGKTLSGKDIYNYGLIILNRINPDNFSMGIVPNSVVNKRKVFNAEEDTLNPLECMGVEVKDELVIIKNLKHEVYGIWIHTVSDRQNIYELIKYLLENEPKDSFA [S45P]
